These results are taken from patent US12540174 (NASCENT BIOTECH, dated 2026).

Test [1] deals with T1, recombinant human vimentin (human, UniProt P08670 1-466, limits assumed).
T1 construct: also called recombinant vimentin
As to the kind of experiment: BLI, Octet HTX, 25 C; pritumumab on anti-human-Fc (AHC) biosensors, recombinant human vimentin as analyte (300 nM start, 1:3, 7 points), 1:1 model. As for the experimental part:
(§1) To determine binding affinity of the antibody Pritumumab for vimentin. Octet HTX was employed to measure the antibody binding to human vimentin. Binding experiments were performed on Octet HTX at 25° C. Pritumumab (10 ug/ml) was loaded onto Anti-Human-Fc (AHC) biosensors. Loaded sensors were dipped into a serial of antigen dilutions (recombinant human vimentin) (300 nM start, 1:3 down, 7 points). Kinetic constants were calculated using a monovalent (1:1) model.
A general note: In BLI a coated tip is dipped into the sample, and binding shifts an interference pattern.

The target of test [2] is T2, antigen of the potency binding ELISA of Example 1 (not named).
T2 construct: kept apart from m2 so as not to guess
Nature of the test: binding (potency) ELISA, OD 450 nm against Log10 [mAb]; reference standard (tox) lot stored in PETG serum vial; coated antigen not named; the table cell has no unit, ug/ml is taken from the concentration axis. A general note: In an ELISA, binding on a coated surface is turned into a signal by an enzyme label.

The target of test [3] is T2, antigen of the potency binding ELISA of …. Nature of the test: binding (potency) ELISA, OD 450 nm against Log10 [mAb]; reference standard (tox) lot stored in polypropylene cryovial 2; coated antigen not named; the table cell has no unit, ug/ml is taken from the concentration axis.
The target is the same in test [4]. Nature of the test: binding (potency) ELISA, OD 450 nm against Log10 [mAb]; reference standard (tox) lot stored in polypropylene cryovial 3; coated antigen not named; the table cell has no unit, ug/ml is taken from the concentration axis.
For test [5] the target is unchanged. Nature of the test: binding ELISA, antigen not named; third lot (reference standard) stored in polypropylene cryovials, 3 vials.
In test [6] the target is T1, recombinant human vimentin. Nature of the test: BLI, Octet HTX, 25 C; pritumumab on anti-human-Fc (AHC) biosensors, recombinant human vimentin as analyte, 1:1 model. As for the experimental part:
as §1

Test [7] has as its target T2, antigen of the potency binding ELISA of …. As to the kind of experiment: binding ELISA, antigen not named; third lot (reference standard) stored in PETG serum vial.
The target is the same in test [8]. As to the kind of experiment: binding (potency) ELISA, OD 450 nm against Log10 [mAb]; clinical drug substance lot stored in polypropylene cryovial; coated antigen not named.
The target is the same in test [9]. As to the kind of experiment: binding ELISA (potency assay), antigen not named; lot stored in PETG serum vial.
Test [10] shares this target. As to the kind of experiment: binding ELISA (potency assay), antigen not named; lot stored in polypropylene cryovial.
Test [11] has the same target. Nature of the test: binding (potency) ELISA, OD 450 nm against Log10 [mAb]; reference standard (tox) lot stored in polypropylene cryovial 1; coated antigen not named; the table cell has no unit, ug/ml is taken from the concentration axis.
For test [12] the target is unchanged. As to the kind of experiment: binding ELISA (potency assay), antigen not named; lot stored in glass serum containers.

T1 sequence (P08670 whole entry): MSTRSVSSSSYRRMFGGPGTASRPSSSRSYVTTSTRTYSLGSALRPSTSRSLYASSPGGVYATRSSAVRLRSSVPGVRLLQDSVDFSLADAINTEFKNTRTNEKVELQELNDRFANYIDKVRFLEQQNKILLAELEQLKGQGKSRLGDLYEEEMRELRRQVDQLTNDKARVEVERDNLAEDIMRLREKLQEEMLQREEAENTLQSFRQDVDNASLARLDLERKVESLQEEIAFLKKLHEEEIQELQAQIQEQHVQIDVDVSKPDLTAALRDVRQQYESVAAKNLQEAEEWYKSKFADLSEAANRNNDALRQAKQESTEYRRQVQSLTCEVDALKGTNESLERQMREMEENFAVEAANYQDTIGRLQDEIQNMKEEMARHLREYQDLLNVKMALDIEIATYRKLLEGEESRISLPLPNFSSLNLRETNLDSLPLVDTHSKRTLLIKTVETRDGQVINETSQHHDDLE

B1: pritumumab (antibody, human IgG1, kappa, V domains shown)
VH: EVQLLESGGDLVQPGGSLRLSCAASGFTFSNYAMSWVRQAPGKGLEWVSAITPSGGSTNYADSVKGRFTISRDNSQNTLYLQMNSLRVEDTAVYICGRVPYRSTWYPLYWGQGTLVTVSS
VL: DIQMTQSPSSLSASVGDRVTITCRASQDISNYLAWFQQKPGKAPKSLIYAASSLHSKVPTQFSGSGSGTDFTLTISSLQPEDFATYYCLQYSTYPITFGGGTKVEIKR
notes: Several lots stored in different containers (glass, PETG, polypropylene) were tested; also called Pritumumab human monoclonal antibody
On to B1, for which the equilibrium dissociation constant (Kd) in test [1] was found to be 7.55 nM. Moreover, the EC50 in test [2] was 11.4 µg/mL; in test [3], 37.1 µg/mL; in test [4], 40.2 µg/mL; in [5], 37 to 40 µg/mL; in [7] it was 11 µg/mL; in [8], 20.1 µg/mL. Also, the EC50 in [9] turned out to be 9.6 µg/mL; in test [10], 20 µg/mL; in test [11], 38 µg/mL; in [12], 8.25 µg/mL. Moreover, in test [6], the koff worked out at 0.000443 s⁻¹. For the same molecule, the kon in [6] was found to be 58700 M⁻¹ s⁻¹.

The Kd is the constant that tells how readily two partners part at equilibrium. One may read the EC50 as the concentration giving half of the maximal effect. A higher EC50 goes with lower potency in that assay. What is called koff is a measure of how fast the partners let go of each other. As usually defined, the kon is a measure of how fast the partners come together.
